Biological target: the molecule itself
Experiment: native MS

B1: Cse2 (natural protein)
chain: MADEIDAMALYRAWQQLDNGSCAQIRRVSEPDELRDIPAFYRLVQPFGWENPRHQQALLRMVFCLSAGKNVIRHQDKKSEQTTGISLGRALANSGRINERRIFQLIRADRTADMVQLRRLLTHAEPVLDWPLMARMLTWWGKRERQQLLEDFVLTTNKNA
  binding result: binds

— paper PMC5009729 (Nucleic Acids Research, 2016)
